Values quoted from earlier work as cited in paper PMC2696053.

Experiments:
[1] = target: Delta-like 1 (Homo sapiens) (UniProt O00548); experiment: surface plasmon resonance
[2] = target: Delta ECD (Drosophila melanogaster) (UniProt P10041); experiment: ELISA
Sequence of UniProt P10041 (P10041 19-596, stated change not applied): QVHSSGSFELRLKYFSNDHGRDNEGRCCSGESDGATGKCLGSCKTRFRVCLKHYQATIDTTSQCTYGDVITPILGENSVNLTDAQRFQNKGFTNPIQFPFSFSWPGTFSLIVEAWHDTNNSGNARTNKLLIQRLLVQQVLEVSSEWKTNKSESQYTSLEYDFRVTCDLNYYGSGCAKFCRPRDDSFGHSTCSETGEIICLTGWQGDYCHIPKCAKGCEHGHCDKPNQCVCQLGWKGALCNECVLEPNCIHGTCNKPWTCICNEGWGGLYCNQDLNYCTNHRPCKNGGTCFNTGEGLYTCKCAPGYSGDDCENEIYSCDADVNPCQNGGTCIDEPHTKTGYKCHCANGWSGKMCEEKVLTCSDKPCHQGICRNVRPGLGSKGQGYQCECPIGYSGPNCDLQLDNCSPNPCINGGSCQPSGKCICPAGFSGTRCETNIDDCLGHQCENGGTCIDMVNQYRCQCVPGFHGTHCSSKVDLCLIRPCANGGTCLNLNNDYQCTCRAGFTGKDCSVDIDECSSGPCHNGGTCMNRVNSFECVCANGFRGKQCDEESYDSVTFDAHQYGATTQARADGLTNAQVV

Sequence of UniProt O00548 (O00548 18-545, stated change not applied): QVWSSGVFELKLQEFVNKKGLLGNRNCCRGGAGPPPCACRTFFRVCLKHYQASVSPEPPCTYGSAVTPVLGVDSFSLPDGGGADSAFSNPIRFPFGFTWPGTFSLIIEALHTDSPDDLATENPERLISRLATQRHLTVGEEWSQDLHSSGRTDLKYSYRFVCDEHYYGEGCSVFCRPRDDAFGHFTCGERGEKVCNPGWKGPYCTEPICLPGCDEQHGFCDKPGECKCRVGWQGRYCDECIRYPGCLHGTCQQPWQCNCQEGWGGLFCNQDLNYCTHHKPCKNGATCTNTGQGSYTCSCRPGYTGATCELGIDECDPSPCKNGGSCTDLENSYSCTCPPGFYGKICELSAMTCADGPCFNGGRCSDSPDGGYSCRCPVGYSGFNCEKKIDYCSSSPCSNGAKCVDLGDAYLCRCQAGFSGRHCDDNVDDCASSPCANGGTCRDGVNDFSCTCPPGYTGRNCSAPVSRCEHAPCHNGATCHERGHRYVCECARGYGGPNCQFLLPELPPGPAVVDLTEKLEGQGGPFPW

| Substance | Kd [1] | Kd [2] |
| --- | --- | --- |
| Notch1 EGF-like repeats 11-14 (from UniProt P46531) | 130 µM |  |
| Notch EGF-like repeats 11-20 (from UniProt P07207) |  | 0.00187 µM |
